In US20190106460A1 (published 2019):
Non-standard residues stand in square brackets, D forms with d. Groups on a side chain read outwards from the residue. *: point of attachment. Chol = cholesteryl, CC(C)CCC[C@@H](C)[C@H]1CC[C@H]2[C@@H]3CC=C4C[C@@H](*)CC[C@]4(C)[C@H]3CC[C@]12C; Benzenesulfonyl(4-tBu) = CC(C)(C)c1ccc(S(=O)(=O)*)cc1; 2,4,6‑trimethylbenzoyl = Cc1cc(C)c(C(=O)*)c(C)c1; Benzenesulfonyl(4-OMe) = COc1ccc(S(=O)(=O)*)cc1; 4‑(i-Pr)PhSO2 = CC(C)c1ccc(S(=O)(=O)*)cc1; Benzoyl(4-tBu) = CC(C)(C)c1ccc(C(=O)*)cc1; 4‑(n-Pr)PhSO2 = CCCc1ccc(S(=O)(=O)*)cc1; Phe(3-F) = N[C@@H](Cc1cccc(F)c1)C(=O)O; Benzoyl(4-Br) = O=C(c1ccc(Br)cc1)*; 2Naphthoyl = O=C(c1ccc2ccccc2c1)*; Benzoyl(4-Me) = Cc1ccc(C(=O)*)cc1; Brosyl = O=S(=O)(c1ccc(Br)cc1)*; Ahx = NCCCCCC(=O)O

B1: 4-(MeO)PhSO2-dEGF(3F)WE-Ahx-K(NHCO-Ph)-NH2 (peptide)
peptide: {Benzenesulfonyl(4-OMe)}-[dD]EG[Phe(3-F)]WE[Ahx]K-NH2
modifications: not fully specified (residue 8); printed as 4-(MeO)PhSO2-dEGF(3F)WE-Ahx-K(NHCO-Ph)-NH2
notes: also called UBP065
B2: 4-(MeO)PhSO2-dEGF(3F)WE-Ahx-K(NHCO-CH2CH2Ch(CH3)2)-NH2 (peptide)
peptide: {Benzenesulfonyl(4-OMe)}-[dD]EG[Phe(3-F)]WE[Ahx]K-NH2
modifications: not fully specified (residue 8); printed as 4-(MeO)PhSO2-dEGF(3F)WE-Ahx-K(NHCO-CH2CH2Ch(CH3)2)-NH2
notes: also called UBP068
B3: 4-(MeO)PhSO2-dEGF(3F)WE-Ahx-k9-NH2 (peptide)
peptide: {Benzenesulfonyl(4-OMe)}-[dD]EG[Phe(3-F)]WE[Ahx][dK][dK][dK][dK][dK][dK][dK][dK][dK]-NH2
SMILES: COc1ccc(S(=O)(=O)N[C@H](CC(=O)O)C(=O)N[C@@H](CCC(=O)O)C(=O)NCC(=O)N[C@@H](Cc2cccc(F)c2)C(=O)N[C@@H](Cc2c[nH]c3ccccc23)C(=O)N[C@@H](CCC(=O)O)C(=O)NCCCCCC(=O)N[C@H](CCCCN)C(=O)N[C@H](CCCCN)C(=O)N[C@H](CCCCN)C(=O)N[C@H](CCCCN)C(=O)N[C@H](CCCCN)C(=O)N[C@H](CCCCN)C(=O)N[C@H](CCCCN)C(=O)N[C@H](CCCCN)C(=O)N[C@H](CCCCN)C(N)=O)cc1
notes: the sheet gives this poly-lysine compound the code UBP022; it is not the untailed UBP022 (1.m39, 5.m30, 6.m3)

These binders were tested against T1, Beta Transducin repeat-containing protein (βTrCP), tag cleaved and complexed with Skp1 (UniProt Q9Y297 175-605; P63208 1-163) (assay: FP competition dose-response, fluorescein-IkB peptide tracer on βTrCP/Skp1 (average Ki; assay not given)).
T1 construct: the FP protocol says that Ki is determined from FP dose-response curves; also called βTrCP/Skp1
T1 sequence (Q9Y297 175-605, chain 1 of 2): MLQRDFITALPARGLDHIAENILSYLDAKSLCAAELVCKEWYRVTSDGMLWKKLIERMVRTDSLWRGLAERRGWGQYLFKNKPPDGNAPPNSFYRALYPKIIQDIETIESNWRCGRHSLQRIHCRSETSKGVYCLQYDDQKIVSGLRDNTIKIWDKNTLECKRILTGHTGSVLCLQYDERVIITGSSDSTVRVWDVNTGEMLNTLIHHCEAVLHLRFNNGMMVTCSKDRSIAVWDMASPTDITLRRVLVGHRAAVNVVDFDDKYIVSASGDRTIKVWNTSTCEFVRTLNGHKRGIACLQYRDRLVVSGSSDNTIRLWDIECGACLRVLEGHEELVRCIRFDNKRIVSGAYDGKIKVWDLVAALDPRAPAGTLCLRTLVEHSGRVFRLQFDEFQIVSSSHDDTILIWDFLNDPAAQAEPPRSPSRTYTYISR
T1 sequence (P63208 whole entry, chain 2 of 2): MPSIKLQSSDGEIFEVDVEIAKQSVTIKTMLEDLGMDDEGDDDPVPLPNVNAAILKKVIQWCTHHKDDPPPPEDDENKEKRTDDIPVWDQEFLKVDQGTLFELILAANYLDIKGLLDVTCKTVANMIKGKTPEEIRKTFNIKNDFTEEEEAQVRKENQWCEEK
Binder B1 has a Ki of 5.94 nM.
{Benzenesulfonyl(4-OMe)}-[dD]EG[Phe(3-F)]WE[Ahx]K(4‑methoxybenzoyl)-NH2 (also called UBP066) [4-(MeO)PhSO2-dEGF(3F)WE-Ahx-K(NHCO-(4-(OMe)-Ph))-NH2] gave a Ki of 5.17 nM.
In the case of {Benzenesulfonyl(4-OMe)}-[dD]EG[Phe(3-F)]WE[Ahx]K(phenylcarbamoyl)-NH2 [4-(MeO)PhSO2-dEGF(3F)WE-Ahx-K(NHCONH-Ph)-NH2], the Ki is reported as 5.61 nM.
Work on B2 yielded a Ki of 5.38 nM.
{Benzenesulfonyl(4-OMe)}-[dD]EG[Phe(3-F)]WE[Ahx]K(1‑naphthyloxycarbonyl)-NH2 (also called UBP069) [4-(MeO)PhSO2-dEGF(3F)WE-Ahx-K(NHOCO-1-Naph)-NH2] gave a Ki of 11.6 nM.
Binder {Benzenesulfonyl(4-OMe)}-[dD]EG[Phe(3-F)]WE[Ahx]K(4‑(dimethylamino)benzoyl)-NH2 (also called UBP071) [4-(MeO)PhSO2 dEGF(3F)WE-Ahx-K(NHCO-(4-(Me2N)-Ph))-NH2] has a Ki of 9.51 nM.
For {Benzenesulfonyl(4-OMe)}-[dD]EG[Phe(3-F)]WE[Ahx]K(4‑isopropylphenylsulfonyl)-NH2 (also called UBP072) [4-(MeO)PhSO2-dEGF(3F)WE-Ahx-K(NHSO2-(4-i-Pr)-Ph))-NH2], the Ki was 12.9 nM.
Work on {Benzenesulfonyl(4-OMe)}-[dD]EG[Phe(3-F)]WE[Ahx]K(phenylsulfonyl)-NH2 (also called UBP073) [4-(MeO)PhSO2-dEGF(3F)WE-Ahx-K(NHSO2Ph)-NH2] yielded a Ki of 13 nM.
In the case of {Benzenesulfonyl(4-OMe)}-[dD]EG[Phe(3-F)]WE[Ahx]K(4‑n‑propylphenylsulfonyl)-NH2 (also called UBP074) [4-(MeO)PhSO2-dEGF(3F)WE-Ahx-K(NHSO2-(4-(n-Pr)-Ph)-NH2], the Ki is reported as 28.6 nM.
With {4‑i‑Pr‑PhSO2}-[dD]EG[Phe(3-F)]WE-NH2 (also called UBP040) [4-i-Pr-PhSO2-dEGF(3F)WE-NH2] the Ki was 1.6 nM.
In the case of {4‑Pr‑PhSO2}-[dD]EG[Phe(3-F)]WE-NH2 (also called UBP041) [4-Pr-PhSO2-dEGF(3F)WE-NH2], the Ki is reported as 1.77 nM.
{4‑Br‑PhSO2}-[dD]EG[Phe(3-F)]WE-NH2 (also called UBP042) [4-Br-PhSO2-dEGF(3F)WE-NH2] showed a Ki of 2.52 nM.
{4‑Br‑2‑CH3‑PhSO2}-[dD]EG[Phe(3-F)]WE-NH2 (also called UBP043) [4-Br-2-CH3-PhSO2-dEGF(3F)WE-NH2] was tested, and the Ki was 3.96 nM.
{2‑Naph‑SO2}-[dD]EG[Phe(3-F)]WE-NH2 (also called UBP044) [2-Naph-SO2-dEGF(3F)WE-NH2] showed a Ki of 5.81 nM.
{4‑OCF3‑PhSO2}-[dD]EG[Phe(3-F)]WE-NH2 (also called UBP045) [4-OCF3-PhSO2-dEGF(3F)WE-NH2] was tested, and the Ki was 4.77 nM.
{4‑Br‑3‑CF3‑PhSO2}-[dD]EG[Phe(3-F)]WE-NH2 (also called UBP046) [4-Br-3-CF3-PhSO2-dEGF(3F)WE-NH2] gave a Ki of 14.2 nM.
{4‑CF3‑PhSO2}-[dD]EG[Phe(3-F)]WE-NH2 (also called UBP047) [4-CF3-PhSO2-dEGF(3F)WE-NH2] gave a Ki of 9.45 nM.
With {2,4‑(Cl)2‑PhSO2}-[dD]EG[Phe(3-F)]WE-NH2 (also called UBP048) [2,4-(Cl)2-PhSO2-dEGF(3F)WE-NH2] the Ki was 27 nM.
Work on {2,4‑(Br)2‑PhSO2}-[dD]EG[Phe(3-F)]WE-NH2 (also called UBP049) [2,4-(Br)2-PhSO2-dEGF(3F)WE-NH2] yielded a Ki of 45.3 nM.
Binder {3,5‑(CH3)2‑PhSO2}-[dD]EG[Phe(3-F)]WE-NH2 (also called UBP050) [3,5-(CH3)2-PhSO2-dEGF(3F)WE-NH2] has a Ki of 24.6 nM.
{4‑Br‑2‑OCF3‑PhSO2}-[dD]EG[Phe(3-F)]WE-NH2 (also called UBP051) [4-Br-2-OCF3-PhSO2-dEGF(3F)WE-NH2] showed a Ki of 110 nM.
{4‑I‑PhSO2}-[dD]EG[Phe(3-F)]WE-NH2 (also called UBP052) [4-I-PhSO2-dEGF(3F)WE-NH2] gave a Ki of 253 nM.
Work on {4‑Cl‑PhSO2}-[dD]EG[Phe(3-F)]WE-NH2 (also called UBP053) [4-Cl-PhSO2-dEGF(3F)WE-NH2] yielded a Ki of 330 nM.

What follows are binders tested against T2, βTrCP (tag cleaved and complexed with Skp1) (UniProt Q9Y297 175-605; P63208 1-163) (assay: fluorescence polarisation assay; the column head does not say whether IC50 or Ki).
T2 construct: Protein of the fluorescence polarisation assay, 0.035 µM; also called Beta Transducin repeat-containing protein; βTrCP/Skp1
T2 sequence (Q9Y297 175-605, chain 1 of 2): as the sequence (Q9Y297 175-605, chain 1 of 2) above
T2 sequence (P63208 whole entry, chain 2 of 2): as the sequence (P63208 whole entry, chain 2 of 2) above
Protocol: Assay components (without compound) were premixed in a microcentrifuge tube and incubated for 1 hour to ensure equilibrium was achieved. Each compound was then added to one tube, mixed by vortexing, and then dispensed into 3 wells of a black 384-well plate and incubated for 30 minutes. Fluorescence polarization was then read (excitation 485 nm, emission 530 nm) using an Analyst-AD from Molecular Devices.
Binding of the compounds to βTrCP was assessed using a fluorescence polarisation (FP) binding assay. The FP assay is an in vitro binding assay using a fluorescein-tagged IkB peptide at 10 nM to mimic substrate binding to βTrCP, and was performed as described above.
B3 was tested, and the “FP Assay /” value was 548 nM.
In the case of {Benzenesulfonyl(4-OMe)}-[dD]EG[Phe(3-F)]WE[Ahx]K([Ahx-Chol])-NH2 (X stands for Ahx; also called UBP036) [4-(MeO)PhSO2-dEGF(3F)WE-Ahx-K(Ahx-Chol)-NH2], the “FP Assay /” value is reported as 19.3 nM.
{Benzenesulfonyl(4-tBu)}-[dD]EG[Phe(3-F)]WE[Ahx]K(Benzoyl(4-tBu))-NH2 (Round II CPP; also called UBP075) [4-(t-Bu)PhSO2-dEGF(3F)WE-Ahx-K(CO((4-tBu)Ph))-NH2] was tested, and the “FP Assay /” value was 87.8 nM.
In the case of {Benzenesulfonyl(4-tBu)}-[dD]EG[Phe(3-F)]WE[Ahx]K(2Naphthoyl)-NH2 (Round II CPP; also called UBP076) [4-(t-Bu)PhSO2-dEGF(3F)WE-Ahx-K(CO(2-Naphth))-NH2], the “FP Assay /” value is reported as 43.4 nM.
With {Benzenesulfonyl(4-tBu)}-[dD]EG[Phe(3-F)]WE[Ahx]K(2,4,6‑trimethylbenzoyl)-NH2 (Round II CPP; also called UBP077) [4-(t-Bu)PhSO2-dEGF(3F)WE-Ahx-K(CO((2,4,6-Me3)Ph))-NH2] the “FP Assay /” value was 40.9 nM.
In the case of {Benzenesulfonyl(4-tBu)}-[dD]EG[Phe(3-F)]WE[Ahx]K(Benzoyl(4-Me))-NH2 (Round II CPP; also called UBP078) [4-(t-Bu)PhSO2-dEGF(3F)WE-Ahx-K(CO((4-Me)Ph))-NH2], the “FP Assay /” value is reported as 40 nM.
{Benzenesulfonyl(4-tBu)}-[dD]EG[Phe(3-F)]WE[Ahx]K(Benzoyl(4-Br))-NH2 (Round II CPP; also called UBP079) [4-(t-Bu)PhSO2-dEGF(3F)WE-Ahx-K(CO((4-Br)Ph))-NH2] was tested, and the “FP Assay /” value was 40.8 nM.
In the case of {4‑(i-Pr)PhSO2}-[dD]EG[Phe(3-F)]WE[Ahx]K(Benzoyl(4-tBu))-NH2 (Round II CPP; also called UBP080) [4-(i-Pr)PhSO2-dEGF(3F)WE-Ahx-K(CO((4-tBu)Ph))-NH2], the “FP Assay /” value is reported as 73 nM.
For {4‑(i-Pr)PhSO2}-[dD]EG[Phe(3-F)]WE[Ahx]K(2Naphthoyl)-NH2 (Round II CPP; also called UBP081) [4-(i-Pr)PhSO2-dEGF(3F)WE-Ahx-K(CO(2-Naphth))-NH2], the “FP Assay /” value was 7.66 nM.
{4‑(i-Pr)PhSO2}-[dD]EG[Phe(3-F)]WE[Ahx]K(2,4,6‑trimethylbenzoyl)-NH2 (Round II CPP; also called UBP082) [4-(i-Pr)PhSO2-dEGF(3F)WE-Ahx-K(CO((2,4,6-Me3)Ph))-NH2] was tested, and the “FP Assay /” value was 56.1 nM.
{4‑(i-Pr)PhSO2}-[dD]EG[Phe(3-F)]WE[Ahx]K(Benzoyl(4-Br))-NH2 (Round II CPP; also called UBP083) [4-(i-Pr)PhSO2-dEGF(3F)WE-Ahx-K(CO((4-Br)Ph))-NH2] was tested, and the “FP Assay /” value was 36.5 nM.
With {4‑(n-Pr)PhSO2}-[dD]EG[Phe(3-F)]WE[Ahx]K(Benzoyl(4-tBu))-NH2 (Round II CPP; also called UBP084) [4-(n-Pr)PhSO2-dEGF(3F)WE-Ahx-K(CO((4-tBu)Ph))-NH2] the “FP Assay /” value was 174 nM.
For {4‑(n-Pr)PhSO2}-[dD]EG[Phe(3-F)]WE[Ahx]K(2Naphthoyl)-NH2 (Round II CPP; also called UBP085) [4-(n-Pr)PhSO2-dEGF(3F)WE-Ahx-K(CO(2-Naphth))-NH2], the “FP Assay /” value was 136 nM.
{4‑(n-Pr)PhSO2}-[dD]EG[Phe(3-F)]WE[Ahx]K(2,4,6‑trimethylbenzoyl)-NH2 (Round II CPP; also called UBP086) [4-(n-Pr)PhSO2-dEGF(3F)WE-Ahx-K(CO((2,4,6-Me3)Ph))-NH2] was tested, and the “FP Assay /” value was 29.4 nM.
For {4‑(n-Pr)PhSO2}-[dD]EG[Phe(3-F)]WE[Ahx]K(Benzoyl(4-Me))-NH2 (Round II CPP; also called UBP087) [4-(n-Pr)PhSO2-dEGF(3F)WE-Ahx-K(CO((4-Me)Ph))-NH2], the “FP Assay /” value was 58.3 nM.
For {4‑(n-Pr)PhSO2}-[dD]EG[Phe(3-F)]WE[Ahx]K(Benzoyl(4-Br))-NH2 (Round II CPP; also called UBP088) [4-(n-Pr)PhSO2-dEGF(3F)WE-Ahx-K(CO((4-Br)Ph))-NH2], the “FP Assay /” value was 39.6 nM.
In the case of Brosyl-[dD]EG[Phe(3-F)]WE[Ahx]K(Benzoyl(4-tBu))-NH2 (Round II CPP; also called UBP089) [4-(Br)PhSO2-dEGF(3F)WE-Ahx-K(CO((4-tBu)Ph))-NH2], the “FP Assay /” value is reported as 305 nM.
Brosyl-[dD]EG[Phe(3-F)]WE[Ahx]K(2Naphthoyl)-NH2 (Round II CPP; also called UBP090) [4-(Br)PhSO2-dEGF(3F)WE-Ahx-K(CO(2-Naphth))-NH2] was tested, and the “FP Assay /” value was 133 nM.
With Brosyl-[dD]EG[Phe(3-F)]WE[Ahx]K(2,4,6‑trimethylbenzoyl)-NH2 (Round II CPP; also called UBP091) [4-(Br)PhSO2-dEGF(3F)WE-Ahx-K(CO((2,4,6-Me3)Ph))-NH2] the “FP Assay /” value was 88.3 nM.
With Brosyl-[dD]EG[Phe(3-F)]WE[Ahx]K(Benzoyl(4-Me))-NH2 (Round II CPP; also called UBP092) [4-(Br)PhSO2-dEGF(3F)WE-Ahx-K(CO((4-Me)Ph))-NH2] the “FP Assay /” value was 151 nM.
